Here are results for four molecules from PMC8897712 (The Journal of Biological Chemistry, 2022).

The target in series [1] is T1, FtsA(ΔMTS) (Escherichia coli, UniProt P0ABH0).
T1 sequence (P0ABH0 1-404): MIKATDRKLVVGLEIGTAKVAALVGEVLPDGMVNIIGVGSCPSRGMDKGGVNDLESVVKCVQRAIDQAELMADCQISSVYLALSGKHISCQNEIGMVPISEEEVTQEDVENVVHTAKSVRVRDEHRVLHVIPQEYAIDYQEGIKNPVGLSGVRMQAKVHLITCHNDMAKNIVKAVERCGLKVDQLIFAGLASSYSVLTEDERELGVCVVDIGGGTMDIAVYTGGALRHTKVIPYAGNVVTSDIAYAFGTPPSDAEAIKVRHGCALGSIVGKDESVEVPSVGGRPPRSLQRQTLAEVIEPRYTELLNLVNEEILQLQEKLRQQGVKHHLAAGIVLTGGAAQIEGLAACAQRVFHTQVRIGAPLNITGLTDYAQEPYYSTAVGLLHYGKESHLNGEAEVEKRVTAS
The conditions noted are these: 50 mM Tris-HCl pH 7.5, 150 mM KCl, 4 mM MgCl2, 23 °C, ATP 4 mM; polymerisation.

Series [2] has as its target T1, FtsA(ΔMTS). The series can be described thus: sedimentation of polymers. The format is biochemical. The following applies: 50 mM Tris-HCl pH 7.5, 150 mM KCl, 4 mM MgCl2, 23 °C; polymerisation.
Series [3] deals with the molecule itself. Briefly: negative-stain transmission electron microscopy.
Series [4] concerns the target T2, FtsA(ΔMTS) (E. coli, UniProt P0ABH0 1-404).
T2 sequence: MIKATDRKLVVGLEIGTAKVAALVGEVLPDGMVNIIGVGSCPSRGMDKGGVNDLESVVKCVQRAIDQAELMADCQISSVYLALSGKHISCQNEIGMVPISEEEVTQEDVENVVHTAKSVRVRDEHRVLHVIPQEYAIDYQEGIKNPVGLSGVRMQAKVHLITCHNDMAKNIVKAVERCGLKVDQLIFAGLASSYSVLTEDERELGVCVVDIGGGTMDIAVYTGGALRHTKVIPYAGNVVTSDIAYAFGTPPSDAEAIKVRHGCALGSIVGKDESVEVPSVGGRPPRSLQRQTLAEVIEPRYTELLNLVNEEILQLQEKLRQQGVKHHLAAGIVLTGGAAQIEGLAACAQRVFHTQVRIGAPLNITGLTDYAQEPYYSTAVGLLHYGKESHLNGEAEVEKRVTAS
Briefly: negative-stain transmission electron microscopy.

Series [5] concerns the target T3, Escherichia coli FtsA (E. coli, UniProt P0ABH0 1-420).
T3 sequence: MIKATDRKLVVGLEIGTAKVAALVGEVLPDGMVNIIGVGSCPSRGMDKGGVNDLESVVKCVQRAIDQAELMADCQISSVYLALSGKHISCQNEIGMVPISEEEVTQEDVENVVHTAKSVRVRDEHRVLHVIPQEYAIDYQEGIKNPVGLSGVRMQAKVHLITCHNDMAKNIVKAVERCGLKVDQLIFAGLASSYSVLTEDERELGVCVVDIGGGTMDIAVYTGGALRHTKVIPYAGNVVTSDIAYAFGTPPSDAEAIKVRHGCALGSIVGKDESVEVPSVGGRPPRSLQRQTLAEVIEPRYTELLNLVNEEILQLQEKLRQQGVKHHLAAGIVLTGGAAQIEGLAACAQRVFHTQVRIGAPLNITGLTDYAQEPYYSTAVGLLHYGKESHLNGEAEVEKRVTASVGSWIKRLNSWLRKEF
Briefly: co-sedimentation.

Series [6] has as its target T4, FtsA(E14R) (E. coli, UniProt P0ABH0 1-420, E14R).
T4 sequence: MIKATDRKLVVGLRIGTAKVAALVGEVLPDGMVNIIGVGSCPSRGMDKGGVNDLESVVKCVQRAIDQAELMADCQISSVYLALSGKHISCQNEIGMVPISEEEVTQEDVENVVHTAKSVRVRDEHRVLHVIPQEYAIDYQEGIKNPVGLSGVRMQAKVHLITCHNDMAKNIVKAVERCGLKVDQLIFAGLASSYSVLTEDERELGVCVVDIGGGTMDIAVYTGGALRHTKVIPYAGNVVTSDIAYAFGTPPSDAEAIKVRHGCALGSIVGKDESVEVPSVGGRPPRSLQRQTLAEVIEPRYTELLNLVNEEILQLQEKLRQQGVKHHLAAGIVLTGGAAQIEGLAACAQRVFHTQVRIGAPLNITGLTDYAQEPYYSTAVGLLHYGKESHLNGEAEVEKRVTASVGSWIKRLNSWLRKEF
Briefly: co-sedimentation.

In series [7] the target is T2, FtsA(ΔMTS). The series can be described thus: bead recruitment assay.

Where two headings read alike, the source gives them in different places.

For `Nc1ncnc2c1ncn2[C@@H]1O[C@H](COP(=O)(O)OP(=O)(O)OP(=O)(O)O)[C@@H](O)[C@H]1O` [ATP], in series [1], the “% FtsA(ΔMTS) in pellet” value is given as 50.0%. With `Nc1ncnc2c1ncn2[C@@H]1O[C@H](COP(=O)(O)OP(=O)(O)O)[C@@H](O)[C@H]1O` [ADP], the “% FtsA(ΔMTS) in pellet” value in series [2] is listed as 22.4%.

B1: Escherichia coli FtsZ (natural protein)
chain: MFEPMELTNDAVIKVIGVGGGGGNAVEHMVRERIEGVEFFAVNTDAQALRKTAVGQTIQIGSGITKGLGAGANPEVGRNAADEDRDALRAALEGADMVFIAAGMGGGTGTGAAPVVAEVAKDLGILTVAVVTKPFNFEGKKRMAFAEQGITELSKHVDSLITIPNDKLLKVLGRGISLLDAFGAANDVLKGAVQGIAELITRPGLMNVDFADVRTVMSEMGYAMMGSGVASGEDRAEEAAEMAISSPLLEDIDLSGARGVLVNITAGFDLRLDEFETVGNTIRAFASDNATVVIGTSLDPDMNDELRVTVVATGIGMDKRPEITLVTNKQVQQPVMDRYQQHGMAPLTQEQKPVAKVVNDNAPQTAKEPDYLDIPAFLRKQAD
As to B1, the binding result in series [3], in series [4], in series [5] and in series [6] was “binds” each time.

B2: H6-Gfp-FtsZ (natural protein)
chain: MFEPMELTNDAVIKVIGVGGGGGNAVEHMVRERIEGVEFFAVNTDAQALRKTAVGQTIQIGSGITKGLGAGANPEVGRNAADEDRDALRAALEGADMVFIAAGMGGGTGTGAAPVVAEVAKDLGILTVAVVTKPFNFEGKKRMAFAEQGITELSKHVDSLITIPNDKLLKVLGRGISLLDAFGAANDVLKGAVQGIAELITRPGLMNVDFADVRTVMSEMGYAMMGSGVASGEDRAEEAAEMAISSPLLEDIDLSGARGVLVNITAGFDLRLDEFETVGNTIRAFASDNATVVIGTSLDPDMNDELRVTVVATGIGMDKRPEITLVTNKQVQQPVMDRYQQHGMAPLTQEQKPVAKVVNDNAPQTAKEPDYLDIPAFLRKQAD
Consider B2, for which the binding result in series [7] is reported as “binds”.
